From PMC10127204, “Unique Initiation and Termination Mechanisms Involved in the Biosynthesis of a Hybrid Polyketide-Nonribosomal Peptide Lyngbyapeptin B Produced by the Marine Cyanobacterium Moorena bouillonii” (ACS Chemical Biology, 2023)

Assays:
Type in all cases: biochemical, Moorena bouillonii
Details in all cases: Fe2+ and molecular oxygen required
[1] = substrate: CC1=N[C@H](C(=O)O)CS1; experiment: kinetic analysis of 2-methylthiazole formation
[2] = substrate: CC1=N[C@@H](C(=O)O)CS1; experiment: kinetic analysis of 2-methylthiazole formation
[3] = substrate: O=C(O)[C@@H]1CSC(c2ccccc2)=N1; experiment: kinetic analysis of 2-phenylthiazole formation

B1: LynB7 (Moorena bouillonii) (protein)
chain: MVKTYEIIDADSHVLEPLDLWEKYLEPEFKHFAPKEDYKLEGEPILYKFNPSDFVESEAAKRAQEDPDIYKGGYDPKARVELMEQMGSDMTFLYPTIGLWMWSVDTMDSKLAGAFVRSYNNWLHDFCNYAPQKLKGIGAINQHDPEEMVPELQRIVEFGWKAVFIRPNPVKGRILSDPVYEPFWSECERLNVAVTVHEGTHSRLPTTGADRFDSRFALHACSHPMEQMMALLALIEGGVLERHPQLRVGFFESGCGWLPYWLWRLDEEYENLYYEVKDNVKMKPSEYFHRQCYTGFEVDEPYLAELIEYIGADKLLFGSDFPHMDHPNFIESVDETLALREKLPEDVIKKILHDNPLRYYGLT
Km [1]: 2100 ± 200 µM
kcat [1]: 17 ± 0.7 s^–1
Km [2]: 3600 ± 700 µM
kcat [2]: 1.3 ± 0.1 s^–1
Km [3]: 1500 ± 300 µM
kcat [3]: 11 ± 0.5 s^–1
